T1: human MPL (Thrombopoietin Receptor) (human, UniProt P40238 26-635)
T1 construct: whole, on cells; also called MPL on HEL.92.1.7 cells
T1 sequence (looked up): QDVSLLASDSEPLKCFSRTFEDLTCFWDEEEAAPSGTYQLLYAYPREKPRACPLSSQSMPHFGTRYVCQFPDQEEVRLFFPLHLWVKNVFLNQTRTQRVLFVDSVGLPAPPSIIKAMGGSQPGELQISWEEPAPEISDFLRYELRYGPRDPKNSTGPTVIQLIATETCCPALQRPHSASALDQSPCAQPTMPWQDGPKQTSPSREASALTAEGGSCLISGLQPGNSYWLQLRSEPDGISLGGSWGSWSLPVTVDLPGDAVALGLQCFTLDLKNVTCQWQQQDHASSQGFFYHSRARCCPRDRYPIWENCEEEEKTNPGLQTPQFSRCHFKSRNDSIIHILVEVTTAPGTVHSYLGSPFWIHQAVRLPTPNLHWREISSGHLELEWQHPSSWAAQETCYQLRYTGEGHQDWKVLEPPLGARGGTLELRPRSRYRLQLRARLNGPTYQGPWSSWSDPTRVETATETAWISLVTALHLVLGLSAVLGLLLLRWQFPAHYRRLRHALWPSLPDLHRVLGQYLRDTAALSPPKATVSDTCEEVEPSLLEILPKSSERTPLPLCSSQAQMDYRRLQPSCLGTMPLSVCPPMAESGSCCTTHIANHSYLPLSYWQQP

T2: BCMA (human, UniProt Q02223 1-184)
T2 construct: whole, on cells; also called human BCMA; BCMA on L363 cells
T2 sequence (looked up): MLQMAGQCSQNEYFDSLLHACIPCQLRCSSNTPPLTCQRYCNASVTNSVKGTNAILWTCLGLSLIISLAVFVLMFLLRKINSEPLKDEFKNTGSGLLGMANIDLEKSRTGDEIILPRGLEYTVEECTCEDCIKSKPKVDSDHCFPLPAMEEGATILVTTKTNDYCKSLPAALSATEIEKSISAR

B1: CD8SP-MPL-hu-161-2-BBz (other)
chain: DVVMTQSPSSLSASVGDRVTITCMASEDIYIRLAWYQQKPGNAPKLLIYAATSLETGVPSRFSGSGSGTDFTLTISSLQPEDFATYYCQQYWSSPWTFGGGTKVEIKGGGGSGGGGSGGGGSQVQLQESGPGLVKPSQTLSLTCTVSGYSITSDYTWNWIRQPPGNGLEWIGYITYSGSTSYNPSLKSRVLISVDTSKNQVSLKLSSVTAADTAVYYCARLGRRYTMDYWGQGTTVTVSSTRAKPTTTPAPRPPTPAPTIASQPLSLRPEACRPAAGGAVHTRGLDFACDIYIWAPLAGTCGVLLLSLVITLYCKRGRKKLLYIFKQPFMRPVQTTQEEDGCSCRFPEEEEGGCELRVKFSRSADAPAYQQGQNQLYNELNLGRREEYDVLDKRRGRDPEMGGKPRRKNPQEGLYNELQKDKMAEAYSEIGMKGERRRGKGHDGLYQGLSTATKDTYDALHMQALPPR
notes: Second generation CAR from a humanized MPL antibody (41BB, CD3z); Entry includes the CD8 signal peptide
B2: CD8SP-BCMA-huC13-F12-BBz (other)
chain: DIVLTQSPATLSLSPGDRATLSCRASESVTILGSHLIYWYQQKPGQAPRLLIQLASNVQTGIPARFSGSGSRTDFTLTISSLEPEDFAVYYCLQSRTIPRTFGQGTKLEIKRGGGGSGGGGSGGGGSQVQLVQSGSELKKPGESVKISCKASGYTFTHYSMNWVRQAPGQGLEWMGRINTETGEPLYADDFKGRFVFSLDTSASTAYLQISSLKAEDTAVYYCSNDYLYSLDYWGQGTLVTVSSTRAKPTTTPAPRPPTPAPTIASQPLSLRPEACRPAAGGAVHTRGLDFACDIYIWAPLAGTCGVLLLSLVITLYCKRGRKKLLYIFKQPFMRPVQTTQEEDGCSCRFPEEEEGGCELRVKFSRSADAPAYQQGQNQLYNELNLGRREEYDVLDKRRGRDPEMGGKPRRKNPQEGLYNELQKDKMAEAYSEIGMKGERRRGKGHDGLYQGLSTATKDTYDALHMQALPPR
notes: Second generation CAR (41BB, CD3z)

Assays:
[1] = biological target: T1, human MPL (Thrombopoietin Receptor); experiment: CAR expressed in MPL-bearing HEL.92.1.7 cells; staining with MPL antibody (1.6.1) or 161-scFv-Nluc
BCMA = biological target: T2, BCMA; experiment: CAR stably expressed in BCMA-bearing L363 and U266 cell lines; detection reagent not named

Row | Binder | binding result [1] | binding result (BCMA)
1 | B1 | binds | 
2 | B2 |  | binds

From US20210137977A1 (UNIVERSITY OF SOUTHERN CALIFORNIA, published 2021)
